{"source": "the RNAGym collection of RNA variant scans (doi:10.1021/acssynbio.7b00057)", "parents": {"B1": {"name": "Pistol ribozyme (parent)", "chain": "GGGUCGUUGUUCCAUAAUCGCGUGGAUAUGGCACGCAAGUUUCUACCGGGCACCGUAAAUGUCCGACUGGAGCCGUUCGGGCGGCUAUAAACAGACCUCAGGCCCGAAGCGUGGCGGCACCUGCCGCCGGUGGUAAAAAAGAUCGGAAGAGCACACGUCU"}}}
{"variants_of": "B1", "test": "aptazyme ON/OFF ratio, guanine; higher = stronger switching; co-transcriptional cleavage with and without guanine"}
{"variant": "GGGUCGUCGGGCCAUAAUCGCGUGGAUAUGGCACGCAAGUUUCUACCGGGCACCGUAAAUGUCCGACUGGAGCCGUUCGGGCGGCUAUAAACAGACCUCAGGCCCGAAGCGUGGCGGCACCUGCCGCCGGUGGUAAAAAAGAUCGGAAGAGCACACGUCU", "aptazyme ON/OFF ratio": 1.26}
{"variant": "GGGUCGUCGGCCCAUAAUCGCGUGGAUAUGGCACGCAAGUUUCUACCGGGCACCGUAAAUGUCCGACUGGAGCCGUUCGGGCGGCUAUAAACAGACCUCAGGCCCGAAGCGUGGCGGCACCUGCCGCCGGUGGUAAAAAAGAUCGGAAGAGCACACGUCU", "aptazyme ON/OFF ratio": 1.1}
{"variant": "GGGUCGUCGGAAGAUAAUCGCGUGGAUAUGGCACGCAAGUUUCUACCGGGCACCGUAAAUGUCCGACUGGAGCCGUUCGGGCGGCUAUAAACAGACCUCAGGCCCGAAGCGUGGCGGCACCUGCCGCCGGUGGUAAAAAAGAUCGGAAGAGCACACGUCU", "aptazyme ON/OFF ratio": 1.15}
{"variant": "GGGUCGUCGGAAAAUAAUCGCGUGGAUAUGGCACGCAAGUUUCUACCGGGCACCGUAAAUGUCCGACUGGAGCCGUUCGGGCGGCUAUAAACAGACCUCAGGCCCGAAGCGUGGCGGCACCUGCCGCCGGUGGUAAAAAAGAUCGGAAGAGCACACGUCU", "aptazyme ON/OFF ratio": 1.18}
{"variant": "GGGUCGUCGGAAUAUAAUCGCGUGGAUAUGGCACGCAAGUUUCUACCGGGCACCGUAAAUGUCCGACUGGAGCCGUUCGGGCGGCUAUAAACAGACCUCAGGCCCGAAGCGUGGCGGCACCUGCCGCCGGUGGUAAAAAAGAUCGGAAGAGCACACGUCU", "aptazyme ON/OFF ratio": 1.2}
{"variant": "GGGUCGUCGGAGCAUAAUCGCGUGGAUAUGGCACGCAAGUUUCUACCGGGCACCGUAAAUGUCCGACUGGAGCCGUUCGGGCGGCUAUAAACAGACCUCAGGCCCGAAGCGUGGCGGCACCUGCCGCCGGUGGUAAAAAAGAUCGGAAGAGCACACGUCU", "aptazyme ON/OFF ratio": 1.23}
{"variant": "GGGUCGUCGGAUCAUAAUCGCGUGGAUAUGGCACGCAAGUUUCUACCGGGCACCGUAAAUGUCCGACUGGAGCCGUUCGGGCGGCUAUAAACAGACCUCAGGCCCGAAGCGUGGCGGCACCUGCCGCCGGUGGUAAAAAAGAUCGGAAGAGCACACGUCU", "aptazyme ON/OFF ratio": 1.08}
{"variant": "GGGUCGUCGGGAAAUAAUCGCGUGGAUAUGGCACGCAAGUUUCUACCGGGCACCGUAAAUGUCCGACUGGAGCCGUUCGGGCGGCUAUAAACAGACCUCAGGCCCGAAGCGUGGCGGCACCUGCCGCCGGUGGUAAAAAAGAUCGGAAGAGCACACGUCU", "aptazyme ON/OFF ratio": 1.11}
{"variant": "GGGUCGUCGGGAUAUAAUCGCGUGGAUAUGGCACGCAAGUUUCUACCGGGCACCGUAAAUGUCCGACUGGAGCCGUUCGGGCGGCUAUAAACAGACCUCAGGCCCGAAGCGUGGCGGCACCUGCCGCCGGUGGUAAAAAAGAUCGGAAGAGCACACGUCU", "aptazyme ON/OFF ratio": 1.22}
{"variant": "GGGUCGUCGGGAGAUAAUCGCGUGGAUAUGGCACGCAAGUUUCUACCGGGCACCGUAAAUGUCCGACUGGAGCCGUUCGGGCGGCUAUAAACAGACCUCAGGCCCGAAGCGUGGCGGCACCUGCCGCCGGUGGUAAAAAAGAUCGGAAGAGCACACGUCU", "aptazyme ON/OFF ratio": 1.09}
{"variant": "GGGUCGUCGGCGAAUAAUCGCGUGGAUAUGGCACGCAAGUUUCUACCGGGCACCGUAAAUGUCCGACUGGAGCCGUUCGGGCGGCUAUAAACAGACCUCAGGCCCGAAGCGUGGCGGCACCUGCCGCCGGUGGUAAAAAAGAUCGGAAGAGCACACGUCU", "aptazyme ON/OFF ratio": 1.18}
{"variant": "GGGUCGUCGGCGGAUAAUCGCGUGGAUAUGGCACGCAAGUUUCUACCGGGCACCGUAAAUGUCCGACUGGAGCCGUUCGGGCGGCUAUAAACAGACCUCAGGCCCGAAGCGUGGCGGCACCUGCCGCCGGUGGUAAAAAAGAUCGGAAGAGCACACGUCU", "aptazyme ON/OFF ratio": 1.17}
{"variant": "GGGUCGUCGGCGUAUAAUCGCGUGGAUAUGGCACGCAAGUUUCUACCGGGCACCGUAAAUGUCCGACUGGAGCCGUUCGGGCGGCUAUAAACAGACCUCAGGCCCGAAGCGUGGCGGCACCUGCCGCCGGUGGUAAAAAAGAUCGGAAGAGCACACGUCU", "aptazyme ON/OFF ratio": 1.32}
{"variant": "GGGUCGUCGGCUUAUAAUCGCGUGGAUAUGGCACGCAAGUUUCUACCGGGCACCGUAAAUGUCCGACUGGAGCCGUUCGGGCGGCUAUAAACAGACCUCAGGCCCGAAGCGUGGCGGCACCUGCCGCCGGUGGUAAAAAAGAUCGGAAGAGCACACGUCU", "aptazyme ON/OFF ratio": 1.28}
{"variant": "GGGUCGUCGGCUAAUAAUCGCGUGGAUAUGGCACGCAAGUUUCUACCGGGCACCGUAAAUGUCCGACUGGAGCCGUUCGGGCGGCUAUAAACAGACCUCAGGCCCGAAGCGUGGCGGCACCUGCCGCCGGUGGUAAAAAAGAUCGGAAGAGCACACGUCU", "aptazyme ON/OFF ratio": 1.26}
{"variant": "GGGUCGUCGGCUGAUAAUCGCGUGGAUAUGGCACGCAAGUUUCUACCGGGCACCGUAAAUGUCCGACUGGAGCCGUUCGGGCGGCUAUAAACAGACCUCAGGCCCGAAGCGUGGCGGCACCUGCCGCCGGUGGUAAAAAAGAUCGGAAGAGCACACGUCU", "aptazyme ON/OFF ratio": 1.19}
{"variant": "GGGUCGUCGGACAAUAAUCGCGUGGAUAUGGCACGCAAGUUUCUACCGGGCACCGUAAAUGUCCGACUGGAGCCGUUCGGGCGGCUAUAAACAGACCUCAGGCCCGAAGCGUGGCGGCACCUGCCGCCGGUGGUAAAAAAGAUCGGAAGAGCACACGUCU", "aptazyme ON/OFF ratio": 1.26}
{"variant": "GGGUCGUCGGACUAUAAUCGCGUGGAUAUGGCACGCAAGUUUCUACCGGGCACCGUAAAUGUCCGACUGGAGCCGUUCGGGCGGCUAUAAACAGACCUCAGGCCCGAAGCGUGGCGGCACCUGCCGCCGGUGGUAAAAAAGAUCGGAAGAGCACACGUCU", "aptazyme ON/OFF ratio": 1.18}
{"variant": "GGGUCGUCGGACGAUAAUCGCGUGGAUAUGGCACGCAAGUUUCUACCGGGCACCGUAAAUGUCCGACUGGAGCCGUUCGGGCGGCUAUAAACAGACCUCAGGCCCGAAGCGUGGCGGCACCUGCCGCCGGUGGUAAAAAAGAUCGGAAGAGCACACGUCU", "aptazyme ON/OFF ratio": 1.19}
{"variant": "GGGUCGUCGGCAGAUAAUCGCGUGGAUAUGGCACGCAAGUUUCUACCGGGCACCGUAAAUGUCCGACUGGAGCCGUUCGGGCGGCUAUAAACAGACCUCAGGCCCGAAGCGUGGCGGCACCUGCCGCCGGUGGUAAAAAAGAUCGGAAGAGCACACGUCU", "aptazyme ON/OFF ratio": 1.11}
{"variant": "GGGUCGUCGGCAUAUAAUCGCGUGGAUAUGGCACGCAAGUUUCUACCGGGCACCGUAAAUGUCCGACUGGAGCCGUUCGGGCGGCUAUAAACAGACCUCAGGCCCGAAGCGUGGCGGCACCUGCCGCCGGUGGUAAAAAAGAUCGGAAGAGCACACGUCU", "aptazyme ON/OFF ratio": 1.32}
{"variant": "GGGUCGUCGGCAAAUAAUCGCGUGGAUAUGGCACGCAAGUUUCUACCGGGCACCGUAAAUGUCCGACUGGAGCCGUUCGGGCGGCUAUAAACAGACCUCAGGCCCGAAGCGUGGCGGCACCUGCCGCCGGUGGUAAAAAAGAUCGGAAGAGCACACGUCU", "aptazyme ON/OFF ratio": 1.24}
{"variant": "GGGUCGUCGGAGGAUAAUCGCGUGGAUAUGGCACGCAAGUUUCUACCGGGCACCGUAAAUGUCCGACUGGAGCCGUUCGGGCGGCUAUAAACAGACCUCAGGCCCGAAGCGUGGCGGCACCUGCCGCCGGUGGUAAAAAAGAUCGGAAGAGCACACGUCU", "aptazyme ON/OFF ratio": 1.15}
{"variant": "GGGUCGUCGGAGAAUAAUCGCGUGGAUAUGGCACGCAAGUUUCUACCGGGCACCGUAAAUGUCCGACUGGAGCCGUUCGGGCGGCUAUAAACAGACCUCAGGCCCGAAGCGUGGCGGCACCUGCCGCCGGUGGUAAAAAAGAUCGGAAGAGCACACGUCU", "aptazyme ON/OFF ratio": 1.13}
{"variant": "GGGUCGUCGGAGUAUAAUCGCGUGGAUAUGGCACGCAAGUUUCUACCGGGCACCGUAAAUGUCCGACUGGAGCCGUUCGGGCGGCUAUAAACAGACCUCAGGCCCGAAGCGUGGCGGCACCUGCCGCCGGUGGUAAAAAAGAUCGGAAGAGCACACGUCU", "aptazyme ON/OFF ratio": 1.18}
{"variant": "GGGUCGUCGGAUGAUAAUCGCGUGGAUAUGGCACGCAAGUUUCUACCGGGCACCGUAAAUGUCCGACUGGAGCCGUUCGGGCGGCUAUAAACAGACCUCAGGCCCGAAGCGUGGCGGCACCUGCCGCCGGUGGUAAAAAAGAUCGGAAGAGCACACGUCU", "aptazyme ON/OFF ratio": 1.12}
{"variant": "GGGUCGUCGGAUUAUAAUCGCGUGGAUAUGGCACGCAAGUUUCUACCGGGCACCGUAAAUGUCCGACUGGAGCCGUUCGGGCGGCUAUAAACAGACCUCAGGCCCGAAGCGUGGCGGCACCUGCCGCCGGUGGUAAAAAAGAUCGGAAGAGCACACGUCU", "aptazyme ON/OFF ratio": 1.25}
{"variant": "GGGUCGUCGGAUAAUAAUCGCGUGGAUAUGGCACGCAAGUUUCUACCGGGCACCGUAAAUGUCCGACUGGAGCCGUUCGGGCGGCUAUAAACAGACCUCAGGCCCGAAGCGUGGCGGCACCUGCCGCCGGUGGUAAAAAAGAUCGGAAGAGCACACGUCU", "aptazyme ON/OFF ratio": 1.35}
{"variant": "GGGUCGUCGGCCGAUAAUCGCGUGGAUAUGGCACGCAAGUUUCUACCGGGCACCGUAAAUGUCCGACUGGAGCCGUUCGGGCGGCUAUAAACAGACCUCAGGCCCGAAGCGUGGCGGCACCUGCCGCCGGUGGUAAAAAAGAUCGGAAGAGCACACGUCU", "aptazyme ON/OFF ratio": 1.07}
{"variant": "GGGUCGUCGGCCAAUAAUCGCGUGGAUAUGGCACGCAAGUUUCUACCGGGCACCGUAAAUGUCCGACUGGAGCCGUUCGGGCGGCUAUAAACAGACCUCAGGCCCGAAGCGUGGCGGCACCUGCCGCCGGUGGUAAAAAAGAUCGGAAGAGCACACGUCU", "aptazyme ON/OFF ratio": 1.05}
{"variant": "GGGUCGUCGGCCUAUAAUCGCGUGGAUAUGGCACGCAAGUUUCUACCGGGCACCGUAAAUGUCCGACUGGAGCCGUUCGGGCGGCUAUAAACAGACCUCAGGCCCGAAGCGUGGCGGCACCUGCCGCCGGUGGUAAAAAAGAUCGGAAGAGCACACGUCU", "aptazyme ON/OFF ratio": 1.04}
{"variant": "GGGUCGUCGGCUCAUAAUCGCGUGGAUAUGGCACGCAAGUUUCUACCGGGCACCGUAAAUGUCCGACUGGAGCCGUUCGGGCGGCUAUAAACAGACCUCAGGCCCGAAGCGUGGCGGCACCUGCCGCCGGUGGUAAAAAAGAUCGGAAGAGCACACGUCU", "aptazyme ON/OFF ratio": 1.21}
{"variant": "GGGUCGUCGGCACAUAAUCGCGUGGAUAUGGCACGCAAGUUUCUACCGGGCACCGUAAAUGUCCGACUGGAGCCGUUCGGGCGGCUAUAAACAGACCUCAGGCCCGAAGCGUGGCGGCACCUGCCGCCGGUGGUAAAAAAGAUCGGAAGAGCACACGUCU", "aptazyme ON/OFF ratio": 2.79}
{"variant": "GGGUCGUCGGCGCAUAAUCGCGUGGAUAUGGCACGCAAGUUUCUACCGGGCACCGUAAAUGUCCGACUGGAGCCGUUCGGGCGGCUAUAAACAGACCUCAGGCCCGAAGCGUGGCGGCACCUGCCGCCGGUGGUAAAAAAGAUCGGAAGAGCACACGUCU", "aptazyme ON/OFF ratio": 1.78}
{"variant": "GGGUCGUCGGGACAUAAUCGCGUGGAUAUGGCACGCAAGUUUCUACCGGGCACCGUAAAUGUCCGACUGGAGCCGUUCGGGCGGCUAUAAACAGACCUCAGGCCCGAAGCGUGGCGGCACCUGCCGCCGGUGGUAAAAAAGAUCGGAAGAGCACACGUCU", "aptazyme ON/OFF ratio": 1.18}
{"variant": "GGGUCGUCGGGGCAUAAUCGCGUGGAUAUGGCACGCAAGUUUCUACCGGGCACCGUAAAUGUCCGACUGGAGCCGUUCGGGCGGCUAUAAACAGACCUCAGGCCCGAAGCGUGGCGGCACCUGCCGCCGGUGGUAAAAAAGAUCGGAAGAGCACACGUCU", "aptazyme ON/OFF ratio": 1.25}
